Biological target: tdPCP-GFP-VPR (PP7 (from the protein's name) | not stated)
Assay: fluorescence intensity at the reporter gene array in cells

Substance: tdPCP-GFP-VPR
- fold signal at the reporter array against tdPCP-GFP-VP16: 1.9 fold
